What was measured:
[1] = molecular target: TFIID–TFIIA complex on promoter DNA (TFIID–TFIIA–promoter complex) (human) (UniProt P20226); test: single-molecule fluorescence colocalisation (TIRF); supercore promoter DNA and a mutant control template (-63 to +90) immobilised via biotin–streptavidin; dye-labelled factors injected with unlabelled ones; a signal within ∼40 nm of a DNA position counted as binding; 2.5 Hz; 11.3 mM HEPES pH 7.9, 5.6 mM MgCl2, 45 mM KCl; the target protein is DNA-bound
[2] = molecular target: T1, TBP;TFIIA;TFIIB full length (human;human;human, UniProt P20226;P52655;P52657;Q00403 1-339;1-376;1-109;1-316, ||); test: EMSA; 10 nM DNA; similar efficiency to supercore; Single-molecule: 11.3 mM HEPES pH 7.9, 5.6 mM MgCl2, 45 mM KCl, 45 uM EDTA, 4.5% glycerol, 3.6 ng/ul tRNA, 0.1 ng/ul poly(dG:dC), 0.09% Tween 20, 0.0045% NP40; conditions: protein: recombinant;recombinant;recombinant; tags: N-terminal 6xHis-HaloTag; TMR; GST removed by Ulp1;N-terminal tag incl. thrombin site, Ni-NTA purified; Alexa647 or TMR; copies: 1;1;1;1; label: 5' Cy3 or Atto633; 5' biotin; blunt
T1 sequence (P20226 whole entry, chain 1 of 4): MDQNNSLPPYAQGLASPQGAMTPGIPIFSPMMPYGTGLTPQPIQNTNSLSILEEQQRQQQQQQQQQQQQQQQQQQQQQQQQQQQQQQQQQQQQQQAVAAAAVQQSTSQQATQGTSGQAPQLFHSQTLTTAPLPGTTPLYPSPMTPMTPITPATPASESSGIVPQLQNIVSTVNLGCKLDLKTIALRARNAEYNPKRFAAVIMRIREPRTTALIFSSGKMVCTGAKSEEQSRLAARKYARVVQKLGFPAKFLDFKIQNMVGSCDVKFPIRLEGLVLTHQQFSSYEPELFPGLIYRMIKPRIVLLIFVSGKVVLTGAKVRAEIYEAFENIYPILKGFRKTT
T1 sequence (P52655 whole entry, chain 2 of 4): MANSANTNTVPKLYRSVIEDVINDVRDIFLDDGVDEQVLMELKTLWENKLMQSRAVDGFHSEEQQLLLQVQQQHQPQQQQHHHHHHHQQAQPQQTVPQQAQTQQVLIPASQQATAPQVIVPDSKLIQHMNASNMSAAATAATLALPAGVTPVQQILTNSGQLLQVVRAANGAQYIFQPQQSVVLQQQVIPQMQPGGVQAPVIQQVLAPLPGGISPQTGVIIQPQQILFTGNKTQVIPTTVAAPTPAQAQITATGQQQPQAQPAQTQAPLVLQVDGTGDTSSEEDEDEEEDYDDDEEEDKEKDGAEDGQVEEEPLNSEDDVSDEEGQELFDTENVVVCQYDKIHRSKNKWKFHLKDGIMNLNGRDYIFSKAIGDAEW
T1 sequence (P52657 whole entry, chain 3 of 4): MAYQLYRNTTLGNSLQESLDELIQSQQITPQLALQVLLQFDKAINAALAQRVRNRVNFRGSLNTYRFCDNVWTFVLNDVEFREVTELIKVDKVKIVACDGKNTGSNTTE
T1 sequence (Q00403 whole entry, chain 4 of 4): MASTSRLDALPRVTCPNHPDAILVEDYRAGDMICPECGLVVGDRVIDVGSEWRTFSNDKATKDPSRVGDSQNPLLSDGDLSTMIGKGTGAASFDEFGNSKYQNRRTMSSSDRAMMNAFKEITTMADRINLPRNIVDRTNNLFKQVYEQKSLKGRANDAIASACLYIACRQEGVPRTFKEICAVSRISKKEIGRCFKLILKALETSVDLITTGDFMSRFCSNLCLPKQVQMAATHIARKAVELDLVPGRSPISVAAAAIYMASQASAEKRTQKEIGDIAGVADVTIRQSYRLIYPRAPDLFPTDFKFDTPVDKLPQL

[3] = molecular target: T1, TBP;TFIIA;TFIIB full length; test: EMSA; 10 nM DNA; Single-molecule: 11.3 mM HEPES pH 7.9, 5.6 mM MgCl2, 45 mM KCl, 45 uM EDTA, 4.5% glycerol, 3.6 ng/ul tRNA, 0.1 ng/ul poly(dG:dC), 0.09% Tween 20, 0.0045% NP40; conditions: protein: recombinant;recombinant;recombinant; tags: N-terminal 6xHis-HaloTag; TMR; GST removed by Ulp1;N-terminal tag incl. thrombin site, Ni-NTA purified; Alexa647 or TMR; copies: 1;1;1;1; label: 5' Cy3 or Atto633; 5' biotin; blunt

Sequence of TFIID–TFIIA complex on promoter DNA (TFIID–TFIIA–promoter complex) (human) (P20226 whole entry, looked up, one chain of several): as the sequence (P20226 whole entry, chain 1 of 4) above

**Q.** Which results are given for “TFIIB, full-length (FL) (from UniProt Q00403 1-316) (natural protein)”?
**A.** DNA-binding efficiency (percent of supercore templates colocalising with TFIIB) [1]: 30%; average residence time [1]: 1.5 s; average waiting time after TFIIA arrival (∼8 nM TFIIB) [1]: 3 s

B1: Mutant control template, EMSA (dsDNA)
DNA 1: CATAACCATATGTATCATACACATACGGTACACGTATGTGGGGGTGGGGGCGCGTTCGTCCTGTGACACGATCGAACACTCGAGCCGAGCAGCATAGCCTACGGACCGCAAGCTTCCCTATCCCTTATCTTAACCACTCCAATTACATACACC
DNA 2: GGTGTATGTAATTGGAGTGGTTAAGATAAGGGATAGGGAAGCTTGCGGTCCGTAGGCTATGCTGCTCGGCTCGAGTGTTCGATCGTGTCACAGGACGAACGCGCCCCCACCCCCACATACGTGTACCGTATGTGTATGATACATATGGTTATG
**Q.** Does B1 bind [2]?
**A.** binds

B2: Supercore promoter template, EMSA (dsDNA)
DNA 1: CATAACCATATGTATCATACACATACGGTACTTATATAAGGGGGTGGGGGCGCGTTCGTCCTCAGTCGCGATCGAACACTCGAGCCGAGCAGACGTGCCTACGGACCGCAAGCTTCCCTATCCCTTATCTTAACCACTCCAATTACATACACC
DNA 2: GGTGTATGTAATTGGAGTGGTTAAGATAAGGGATAGGGAAGCTTGCGGTCCGTAGGCACGTCTGCTCGGCTCGAGTGTTCGATCGCGACTGAGGACGAACGCGCCCCCACCCCCTTATATAAGTACCGTATGTGTATGATACATATGGTTATG
**Q.** Does B2 bind [3]?
**A.** binds

Source: publication PMC5066616, “Rapid dynamics of general transcription factor TFIIB binding during preinitiation complex assembly revealed by single-molecule analysis”
